The values that follow come from publication PMC3578790, “Tight Interconnection and Multi-Level Control of Arabidopsis MYB44 in MAPK Cascade Signalling”.

The target in one data set is MYB44 S145D (Arabidopsis thaliana? (Arabidopsis, …, UniProt Q9FDW1 1-305, S145D)). The experiment in a line: EMSA; no discernible difference from wild type; 10 mM Tris pH 8.0, 5 mM MgCl2, 100 mM KCl, 0.02% Triton X-100, 0.1 mg/ml BSA, 0.25% Tween, 2.5 mM DTT, 3 ng/ul poly(dIdC); 30 min room temperature; 5% PAGE in 0.5x TBE or TAE (TAE main) at 4 C. The settings on record: protein: recombinant; label: 5' Dy782 (Methods; called IRDye in Results); (only one strand printed). (A gel shift assay detects complexes by their altered migration in electrophoresis.)

A further data set deals with MYB44 S145A (Arabidopsis thaliana? (Arabidopsis, …, UniProt Q9FDW1 1-305, S145A)). The description is as above. The settings on record: protein: recombinant; label: 5' Dy782 (Methods; called IRDye in Results); (only one strand printed).
Sequence of MYB44 S145A (Arabidopsis thaliana? (Q9FDW1 whole entry S145A): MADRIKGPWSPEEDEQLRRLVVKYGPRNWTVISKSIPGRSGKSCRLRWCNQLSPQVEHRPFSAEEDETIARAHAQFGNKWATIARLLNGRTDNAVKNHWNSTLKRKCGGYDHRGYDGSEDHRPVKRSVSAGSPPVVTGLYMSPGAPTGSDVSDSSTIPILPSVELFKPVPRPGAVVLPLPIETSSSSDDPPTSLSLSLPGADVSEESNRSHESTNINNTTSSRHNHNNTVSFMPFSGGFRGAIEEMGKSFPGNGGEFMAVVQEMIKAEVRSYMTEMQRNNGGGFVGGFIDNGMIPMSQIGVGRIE

Sequence of MYB44 S145D (Arabidopsis thaliana? (Q9FDW1 whole entry S145D): as the sequence (Q9FDW1 whole entry S145A) above, with A145D counted along it

B1: MBSII (dsDNA)
DNA 1: AGCTTCAAAAGTTAGTTACG
DNA 2: CGTAACTAACTTTTGAAGCT
For the molecule B1, the binding result in the data set with MYB44 S145D and in the data set with MYB44 S145A was “binds” in each case.
